From PMC4383033, “Architecture of the ring formed by the tubulin homologue FtsZ in bacterial cell division” (eLife, 2014)

B1: Thermotoga maritima FtsA (natural protein, UniProt Q9WZU0 1-419, looked up)
chain: MIDLSKTVFYTSIDIGSRYIKGLVLGKRDQEWEALAFSSVKSRGLDEGEIKDAIAFKESVNTLLKELEEQLQKSLRSDFVISFSSVSFEREDTVIERDFGEEKRSITLDILSEMQSEALEKLKENGKTPLHIFSKRYLLDDERIVFNPLDMKASKIAIEYTSIVVPLKVYEMFYNFLQDTVKSPFQLKSSLVSTAEGVLTTPEKDRGVVVVNLGYNFTGLIAYKNGVPIKISYVPVGMKHVIKDVSAVLDTSFEESERLIITHGNAVYNDLKEEEIQYRGLDGNTIKTTTAKKLSVIIHARLREIMSKSKKFFREVEAKIVEEGEIGIPGGVVLTGGGAKIPRINELATEVFKSPVRTGCYANSDRPSIINADEVANDPSFAAAFGNVFAVSENPYEETPVKSENPLKKIFRLFKELME
notes: FtsA of Thermotoga maritima; 'completely unmodified'; the C-terminal tail (amphipathic helix) was verified by ESMS to be intact after purification; It says 'completely unmodified' with intact C-terminal tails; also called TmFtsA; source: purified as described previously (Szwedziak et al., 2012)
B2: Thermotoga maritima FtsZ (natural protein, UniProt O08398 1-351, looked up)
chain: MGFDLDVEKKKENRNIPQANNLKIKVIGVGGAGNNAINRMIEIGIHGVEFVAVNTDLQVLEASNADVKIQIGENITRGLGAGGRPEIGEQAALESEEKIREVLQDTHMVFITAGFGGGTGTGASPVIAKIAKEMGILTVAIVTTPFYFEGPERLKKAIEGLKKLRKHVDTLIKISNNKLMEELPRDVKIKDAFLKADETLHQGVKGISELITKRGYINLDFADIESVMKDAGAAILGIGVGKGEHRAREAAKKAMESKLIEHPVENASSIVFNITAPSNIRMEEVHEAAMIIRQNSSEDADVKFGLIFDDEVPDDEIRVIFIATRFPDEDKILFPEGDIPAIYRYGLEGLL
notes: FtsZ of Thermotoga maritima; 'completely unmodified'; the C-terminal tail was verified by ESMS to be intact after purification; It says 'completely unmodified' with intact C-terminal tails; also called TmFtsZ; source: purified as described previously (Szwedziak et al., 2012)

Columns and labels:
[1] = molecular target: the molecule itself; experiment: electron cryomicroscopy and cryotomography of liposomes; TmFtsZ (30 uM) and TmFtsA (10 uM) encapsulated in liposomes of E. coli total lipid extract by dilution of CHAPS; 0.5 mM MgGTP, MgGMPCPP or no nucleotide; TEN100 7.5 buffer; room temperature
Thermotoga maritima FtsA = molecular target: B1; experiment: transmission electron cryomicroscopy of liposomes; proteins on the outside of liposomes of E. coli total lipid extract; TmFtsA 20 uM, TmFtsZ 60 uM or both; 50 mM Tris/HCl, 100 mM NaCl, 1 mM EDTA, 1 mM NaN3, pH 7.5; room temperature; conditions: both partners purified

binding result (Thermotoga maritima FtsA) | Binder | binding result [1]
 | B1 | binds
binds | B2 | binds
